Broadly, the pKd is the negative decadic logarithm of the Kd, by convention in mol/L. As usually defined, the pIC50 is the negative decadic logarithm of the IC50, by convention in mol/L. High values mean a low IC50, low ones a high IC50.

Our source for the Kd and IC50 values is the Immune Epitope Database (IEDB).

pIC50, pKd: −log10 of the molar value. Bounds are passed on as bounds.

Experiment [1] has as its target HLA-B*08:02. As to the kind of experiment: IEDB peptide-MHC binding, purified MHC/direct/fluorescence; filed as Kd, often an IC50 or EC50 that approximates it; ≥ and ≤ were set here for values at or beyond the usual limits of such assays.
Experiment [2] has as its target HLA-C*06:02. The description is as above. Particulars: source organism: Burkholderia mallei ATCC 23344.
The target of experiment [3] is HLA-A*02:01. Briefly: IEDB peptide-MHC binding, purified MHC/competitive/fluorescence; filed as Kd, often an IC50 or EC50 that approximates it; ≥ and ≤ were set here for values at or beyond the usual limits of such assays.
Experiment [4] deals with HLA-A*02:01. Briefly: IEDB peptide-MHC binding, purified MHC/competitive/radioactivity; filed as Kd, often an IC50 or EC50 that approximates it; ≥ and ≤ were set here for values at or beyond the usual limits of such assays.
For experiment [5], the target named is HLA-A*02:17. Described as above.
The target in experiment [6] is HLA-A*02:06. Described as above.
The target of experiment [7] is HLA-A*02:03. The experiment is described as above.
The target in experiment [8] is HLA-A*11:01. Briefly: IEDB peptide-MHC binding, purified MHC/competitive/fluorescence; filed as Kd, often an IC50 or EC50 that approximates it; ≥ and ≤ were set here for values at or beyond the usual limits of such assays.
Experiment [9] concerns the target HLA-B*08:01. As to the kind of experiment: IEDB peptide-MHC binding, purified MHC/competitive/radioactivity; filed as Kd, often an IC50 or EC50 that approximates it; ≥ and ≤ were set here for values at or beyond the usual limits of such assays.
The target of experiment [10] is HLA-B*15:01. The description is as above. The following applies: source organism: Dengue virus 3 Martinique/1243/1999.
Experiment [11] concerns the target HLA-B*15:01. As to the kind of experiment: IEDB peptide-MHC binding, purified MHC/competitive/fluorescence; ≥ and ≤ were set here for values at or beyond the usual limits of such assays. Particulars: source organism: Vaccinia virus Copenhagen.
Experiment [12] concerns the target HLA-B*07:02. The description is as above.
The target of experiment [13] is HLA-A*24:02. The experiment is described as above.
Experiment [14] addresses HLA-A*32:01. Briefly: IEDB peptide-MHC binding, purified MHC/competitive/radioactivity; filed as Kd, often an IC50 or EC50 that approximates it; ≥ and ≤ were set here for values at or beyond the usual limits of such assays. The following applies: source organism: Dengue virus 3 Singapore/8120/1995.
For experiment [15], the target named is HLA-A*26:01. Described as above. The following applies: source organism: Dengue virus 3 Martinique/1243/1999.
Experiment [16] has as its target HLA-A*11:01. As to the kind of experiment: IEDB peptide-MHC binding, purified MHC/competitive/fluorescence; ≥ and ≤ were set here for values at or beyond the usual limits of such assays. Particulars: source organism: Zaire ebolavirus.
In experiment [17] the target is HLA-A*03:01. The experiment is described as above. The following applies: source organism: Zaire ebolavirus.
Experiment [18] concerns the target HLA-A*02:01. Described as above. The following applies: source organism: Zaire ebolavirus.
For experiment [19], the target named is HLA-A*68:02. As to the kind of experiment: IEDB peptide-MHC binding, purified MHC/direct/fluorescence; filed as Kd, often an IC50 or EC50 that approximates it; ≥ and ≤ were set here for values at or beyond the usual limits of such assays. Particulars: source organism: Lechiguanas virus.
Experiment [20] has as its target HLA-A*23:01. Described as above. The following applies: source organism: Lechiguanas virus.
Experiment [21] addresses HLA-A*02:19. Described as above. The following applies: source organism: Lechiguanas virus.
Experiment [22] deals with HLA-A*24:03. The experiment is described as above. The following applies: source organism: Lechiguanas virus.
The target of experiment [23] is HLA-A*02:12. The description is as above. Particulars: source organism: Lechiguanas virus.
For experiment [24], the target named is HLA-A*03:01. The experiment is described as above. The following applies: source organism: Lechiguanas virus.
Experiment [25] concerns the target HLA-A*01:01. The description is as above. Particulars: source organism: Neembucu hantavirus.
Experiment [26] deals with HLA-A*02:03. Described as above. The following applies: source organism: Lechiguanas virus.
The target in experiment [27] is HLA-A*26:01. Briefly: IEDB peptide-MHC binding, purified MHC/competitive/fluorescence; filed as Kd, often an IC50 or EC50 that approximates it; ≥ and ≤ were set here for values at or beyond the usual limits of such assays. The following applies: source organism: Neembucu hantavirus.
The target in experiment [28] is HLA-B*18:01. The description is as above. Particulars: source organism: Neembucu hantavirus.
The target of experiment [29] is HLA-B*27:03. Described as above. Particulars: source organism: Neembucu hantavirus.
For experiment [30], the target named is HLA-B*51:01. The description is as above. The following applies: source organism: Neembucu hantavirus.
The target of experiment [31] is HLA-B*57:01. Described as above. The following applies: source organism: Neembucu hantavirus.
Experiment [32] addresses HLA-B*15:17. The description is as above. Particulars: source organism: Neembucu hantavirus.
Experiment [33] deals with HLA-B*39:01. The description is as above. The following applies: source organism: Neembucu hantavirus.
The target of experiment [34] is HLA-B*46:01. Described as above. Particulars: source organism: Neembucu hantavirus.
[35] abbreviates: source organism: Burkholderia mallei ATCC 23344.
Where [36] appears, read: source organism: Dengue virus 2 Jamaica/1409/1983.
The mark [37] stands for this setting: source organism: Giardia lamblia ATCC 50803.
Setting [38] is: source organism: Dengue virus 2 Thailand/NGS-C/1944.
Where [39] appears, read: source organism: Dengue virus 2 16681-PDK53.
The mark [40] stands for this setting: source organism: Dengue virus 4 Philippines/H241/1956.
The mark [41] stands for this setting: source organism: Dengue virus 3 Martinique/1243/1999.
[42] abbreviates: source organism: Vaccinia virus Copenhagen.
[43] abbreviates: source organism: Zaire ebolavirus.
[44] abbreviates: source organism: Dengue virus 3 China/80-2/1980.
Where [45] appears, read: source organism: Dengue virus 1 Singapore/S275/1990.

Take DLKRKFYTL: the negative-log Kd (pKd) in experiment [1] (source organism: Campylobacter jejuni subsp. jejuni 81116) is 6.81.
Consider RLRRRRHPL, for which the negative-log Kd (pKd) in experiment [2] is no more than 4.70; in experiment [1] (setting [35]) it was 5.93; in experiment [3] (setting [35]) it was no more than 4.70.
TLGMCCIITA: the pKd in [4] (setting [36]) was 7.17; in experiment [5] (setting [36]) it was 4.77.
Consider AIYGAAFSGV, for which the pKd in experiment [4] (setting [36]) was 8.98; in experiment [6] (setting [36]), 8.34; in experiment [5] (setting [36]), 6.20; in experiment [7] (setting [36]) it was 8.07.
As for YARLRKEVL, the pKd in experiment [1] (setting [37]) was 6.46; in experiment [3] (setting [37]), no more than 4.70.
For the sequence SSSPQPKKK, in [8] (source organism: Homo sapiens), the pKd was 6.26.
Consider LQMENKAWLV, for which the pKd in experiment [4] (setting [38]) is 8.00; in [6] (setting [39]) it was 8.93; in [9] (setting [39]), 5.17; in experiment [5] (setting [38]), 6.85.
RMVLAFITFL: the pKd in [4] (setting [40]) is 8.49; in experiment [5] (setting [40]), 8.75.
With YQLWTALISL, the pKd was 7.73 in experiment [4] (setting [41]); 8.25 in experiment [10]; 8.76 in experiment [6] (setting [41]); 5.88 in [9] (setting [41]); 6.98 in [5] (setting [41]).
Take RIPNSLHSL: the negative logarithm of the IC50 (pIC50) was 4.64 in experiment [11], 4.43 in experiment [12] (setting [42]) and 6.18 in experiment [13] (setting [42]).
LPAAPDGIR: in experiment [12] (setting [43]), the negative logarithm of the IC50 (pIC50) was 4.26.
For the sequence VLFTFVLLL, the pKd in experiment [14] was 6.31; in experiment [5] (setting [44]), 6.25.
In the case of ELKGMSYAM, the values for the negative-log Kd (pKd) in [1] (source organism: dengue virus type 3) and in experiment [15] were no more than 4.70 and 5.76, respectively.
As to LLFKTSVGV, the negative-log Kd (pKd) in experiment [4] (setting [45]) is 8.49; in [5] (setting [45]), 7.04; in experiment [7] (setting [45]), 8.04.
For the sequence GPAAEGIYI, in experiment [12] (setting [43]), the pIC50 was 4.22.
As to GIRGFPRCR, the values for the negative-log IC50 (pIC50) in experiment [12] (setting [43]), in [16] and in experiment [17] were no more than 3.35, 4.38 and 5.98, respectively.
On to TELRTFSIL, for which the pIC50 in [18] was no more than 3.40; in experiment [12] (setting [43]) it was 4.30; in [13] (setting [43]), 5.07.
Regarding LLLGLMILLT, the pKd in experiment [4] (setting [44]) was 5.78; in [5] (setting [44]), 6.16.
Turning to RLITANPVV, the pKd was 7.19 in experiment [6] (setting [41]), 6.28 in experiment [5] (setting [44]) and 7.44 in experiment [7] (setting [41]).
On to KTYFEKVERLK, for which the negative-log Kd (pKd) in [8] (source organism: Influenza A virus (A/swine/Scotland/410440/94(H1N2))) was 7.54.
As for ETESATLFT, the negative logarithm of the Kd (pKd) in experiment [19], in experiment [20], in [21], in experiment [22], in experiment [23] and in experiment [24] was no more than 4.70 throughout. The pKd in [25] is 6.23; in experiment [26] it was no more than 4.70; in [3] (source organism: Neembucu hantavirus), no more than 4.70; in experiment [27] it was no more than 4.70; in experiment [28] it was no more than 4.70; in experiment [29] it was no more than 4.70. Also, the pKd in experiment [30], in experiment [31], in experiment [32], in experiment [33] and in experiment [34] was no more than 4.70 throughout.
